According to patent publication US11168320:
pKd: −log10 of the molar value.

Target: Thrombin (UniProt P00734+P00734)
Experiment: EMSA
Conditions: 0.1 nM aptamer, thrombin 0.1-12.8 nM; more than half bound at 0.1 nM thrombin

“NTAGGDTGGGTAGGGTGGTNAGGGWTGATGYGTGGTAGGC [Bivalent aptamer AD]” showed a pKd of over 10.00.
